Results as given in PMC6901939, “A Novel Single Domain Antibody Targeting FliC Flagellin of Salmonella enterica for Effective Inhibition of Host Cell Invasion” (Frontiers in Microbiology, 2019).

Target: T1, FliC flagellin of S. enterica serovar Typhimurium (Salmonella enterica serovar …, UniProt P06179)
T1 construct: FliC flagellin, Salmonella enterica serovar Typhimurium; also called purified FliC; source: bought: Sigma-Aldrich
Assay: BLI; sdAb immobilized on nickel-charged biosensors and dipped into FliC at 250, 125, 62.5, 31.3 and 15.6 nM
Details: both partners purified

T1 sequence (P06179 whole entry): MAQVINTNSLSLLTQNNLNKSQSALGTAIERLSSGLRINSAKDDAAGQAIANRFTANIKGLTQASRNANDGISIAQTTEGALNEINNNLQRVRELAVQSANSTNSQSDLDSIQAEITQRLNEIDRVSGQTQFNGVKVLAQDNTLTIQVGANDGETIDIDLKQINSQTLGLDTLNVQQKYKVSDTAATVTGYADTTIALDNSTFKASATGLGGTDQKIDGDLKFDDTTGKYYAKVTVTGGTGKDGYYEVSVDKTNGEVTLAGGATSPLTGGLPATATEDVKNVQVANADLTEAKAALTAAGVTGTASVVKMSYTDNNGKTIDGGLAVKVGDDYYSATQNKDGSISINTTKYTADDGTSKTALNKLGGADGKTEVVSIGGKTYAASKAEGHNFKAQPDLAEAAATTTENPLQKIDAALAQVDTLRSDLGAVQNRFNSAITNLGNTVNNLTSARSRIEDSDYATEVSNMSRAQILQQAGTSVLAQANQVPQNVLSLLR

B1: Abi-Se07 (VHH)
VHH: QVQLVESGGGLVQAGGSLRLSCTDSGRTFSVKPMGWFRQAPGMEREFVAAASFTGVSTFYADSVKDRFTIFRDKDKNTMDLQINSLKPEDTGAYYCAGTTRTLWGSKWRDVLEYEYWGQGTQVTVSS
notes: X2 = V or K), CDR2 ASX3TGVST (X3 = F or Y), CDR3 AGTX4RTLWGSKWRDX5X6EYEY (X4 = T or L; X5 = V or R; X6 = L or R); CDR3 is 20 amino acids long; The c-myc tag lies between the VHH and the His6 tag, so it probably stayed on the protein; Gene synthesized and cloned into pET27b; also called 0A07; anti-Salmonella sdAb; not shown: His6, C-terminal, kept
**Q.** For B1, which Kd is on record?
**A.** 16.2 nM
